This is an account of results in PMC3671775.

This test concerns the target extracellular fragment of human macrophage galactose receptor (MGL) isoform 3 (human). Description: cross-linking.

“extracellular fragment of human macrophage galactose receptor (MGL) isoform 3 (domain or fragment)” gave a stoichiometry N of 3.
